Data: patent publication US20250340623A1 (AC IMMUNE, published 2025)

What was measured:
[1] = molecular target: T1, monomeric alpha-synuclein (UniProt P37840 1-140); assay: SPR, captured mAb
Method: (§1) Non-covalent immobilization of alpha-synuclein antibodies was performed using a target immobilization method of 2000 response units (RU). Antibodies were diluted in 10 mM sodium acetate pH 5.5 (GE Healthcare, BR-1003-52) to a final concentration of 5 μg/mL.
(§2) Binding affinity of alpha-synuclein antibodies to monomeric or fibrillar alpha-synuclein species was performed using a single-cycle kinetics method. The instrument was primed with 1×HBS-P+ buffer (10× stock from GE Healthcare, BR-1003-52 diluted in Milli-Q water). Injections of monomeric alpha-synuclein (aSyn) (Boston Biochem, SP-485), increasing in concentration from 0.62-50 nM prepared from serial 2-fold dilutions, were performed with contact times of 300 sec/injection at a flow rate of 30 μL/min. A dissociation phase of 900 sec followed the final 50 nM injection. Regeneration of the sensor to the goat anti-mouse antibody layer was achieved using 3 regenerations of 10 mM Glycine pH 1.7. […] Regeneration of the sensor to the goat anti-mouse antibody layer was achieved using 3 regenerations of 10 mM Glycine pH 1.7. Results obtained from single-cycle kinetics were evaluated by Biacore T200 evaluation software with 1:1 binding homogenous Langmuir model (with a global Rmax) with Cycle 5 as a blank subtraction. The following kinetic parameters were obtained: on-rate (ka), off-rate (kd), affinity constant (KD, ratio of kd by ka), maximum response (Rmax), and goodness of fit (Chi2).
(§3) Non-covalent capture of the alpha-synuclein antibodies was performed in three separate runs.

alpha-synuclein fibrils [2] = molecular target: T2, alpha-synuclein fibrils (UniProt P37840 1-140); assay: SPR, captured mAb
Method: as §1, §2, §3

[3] = molecular target: T1, monomeric alpha-synuclein; assay: SPR, captured bAb
Method: (§4) Any non-covalently bound antibodies were removed by three successive regenerations of 10 mM Glycine pH 1.7 (GE Healthcare, 28-9950-84). Immobilization levels were evaluated following ethanolamine capping (Bound) and finally following regeneration (Final). Non-covalent immobilization of alpha-synuclein biparatopic antibodies on flow cell 2 of channels 1-8 was performed at a final concentration of 5 μg/mL, diluted in 10 mM sodium acetate pH 5.5 (GE Healthcare, BR-1003-52). Non-covalent immobilization of an isotype control antibody on flow cell 1 of channels 1-8 was performed at a final concentration of 5 μg/mL, diluted in 10 mM sodium acetate pH 5.5 (GE Healthcare, BR-1003-52).
(§5) Binding affinity of alpha-synuclein biparatopic antibodies to monomeric or fibrillar alpha-synuclein species was performed using a single-cycle kinetics method. The instrument was primed with 1×HBS-P+ buffer (10× stock from GE Healthcare, BR-1003-52 diluted in Milli-Q water). Injections of monomeric alpha-synuclein (Boston Biochem, SP-485), increasing in concentration from 0.62-50 nM prepared from serial 2-fold dilutions, were performed with contact times of 300 sec/injection at a flow rate of 30 μL/min. A dissociation phase of 900 sec followed the final 50 nM injection. Regeneration of the sensor to the goat anti-human antibody layer was achieved using 3 regenerations of 10 mM Glycine pH 1.7. […] Regeneration of the sensor to the goat anti-mouse antibody layer was achieved using 3 regenerations of 10 mM Glycine pH 1.7. Results obtained from single-cycle kinetics were evaluated by Biacore 8K evaluation software with 1:1 binding homogenous Langmuir model with a preceeding buffer injection as a blank subtraction. The following kinetic parameters were obtained: on-rate (ka), off-rate (kd), affinity constant (KD, ratio of kd by ka), maximum response (Rmax), and goodness of fit (Chi2).
(§6) Kinetic constants were determined from 1:1 homogenous binding models for all cases.

alpha-synuclein fibrils [4] = molecular target: T2, alpha-synuclein fibrils; assay: SPR, captured bAb
Method: as §4, §5, §6

[5] = molecular target: T1, monomeric alpha-synuclein; assay: SPR, captured bAb; head says nM, kd/ka gives M
Method: as §4, §5, §6

alpha-synuclein fibrils [6] = molecular target: T2, alpha-synuclein fibrils; assay: SPR, captured bAb; head says nM, kd/ka gives M
Method: as §4, §5, §6

Kd [1] [nM] | koff [1] [s⁻¹] | kon [1] [M⁻¹ s⁻¹] | Kd (alpha-synuclein fibrils [2]) [nM] | koff (alpha-synuclein fibrils [2]) [s⁻¹] | kon (alpha-synuclein fibrils [2]) [M⁻¹ s⁻¹] | koff [3] [s⁻¹] | kon [3] [M⁻¹ s⁻¹] | koff (alpha-synuclein fibrils [4]) [s⁻¹] | kon (alpha-synuclein fibrils [4]) [M⁻¹ s⁻¹] | Kd [5] [nM] | Kd (alpha-synuclein fibrils [6]) [nM] | Binder
606 | 0.000237 | 390 | 3350 | 0.000353 | – | – | – | – | – | – | – | ACI-8032-6301G2-Ab2 (antibody, V domains shown, mouse hybridoma mAb; VH/VL only; also called 6301G2D11) VH: EVQLQQSGPELVKPGASVKISCKASGYTFTDYFMNWVKQSHGKSLEWIGDINPNIGVTNYNPKFKDRATLTVDKSSSSAYMELRSLTSEDSTVYYCARGGGSNPLYYAMDYWGQGTSVTVSS VL: DIVMSQSPSSLAVSAGEKVTMSCKSSQSLLNSRTRKNYLAWYQQKPGQSPKLLIYWASTRESGVPDRFTGSGSGTDFTLTISSVQAEDLAVYFCKQSYDLWTFGGGTKLEIK
3.26 | 0.000651 | 200000 | 134 | 0.000987 | 7350 | – | – | – | – | – | – | ACI-8033-6402E2-Ab2 (antibody, V domains shown, mouse hybridoma mAb; VH/VL only; also called 6402E2E4) VH: EVQLQHSGPDLVKPGASVKISCKASGYTFTDYYMNWVKQSHGKSLEWIGDINPNNGDTTYNQKFKGRATLTVDKSSSTAYMELRSLTSEDSAVYYCARSGSNYYAMDSWGQGTSVTVSS VL: DIVMSQSPSSLAVSAGERVTMSCKSSQSLFNSRTRKNYLAWYQQKPGQSPKLLIYWASTRESGVPDRFTGSGSGTDFSLNISSVQAEDLAVYYCKQSYDLWTFGGGTKLEIK
96.4 | 0.044 | 457000 | 37.9 | 0.000599 | 15800 | – | – | – | – | – | – | ACI-8033-6403A4-Ab1 (antibody, V domains shown, mouse hybridoma mAb; VH/VL only; also called 6403A4A3) VH: EVQLVESGGGLVQPKGSLKLSCAASGFSFNTYAMNWVRQAPGKGLEWVARIRSKSNNYTTYYADSVKDRFTISRDDSESMLYLQMNNLKTEDTAMYYCVRTMDYWGQGTSVTVSS VL: QIVLTQSPAIMSASLGEEITLTCSASSSISYMHWYQQKSGTSPKLLIHSTFNLASGVPSRFSGSGSGTFYSLTISSVEAEDAADYYCHQWSSYYTFGGGTKLEIK
19 | 0.0248 | 1.3e+06 | 26 | 0.000691 | 26500 | – | – | – | – | – | – | ACI-8032-6307F1-Ab2 (antibody, V domains shown, mouse hybridoma mAb; VH/VL only; also called 6307F1H10) VH: QVQLQQSGAELARPGASVKLSCKASGYTFTSYGMSWVKQRTGQGLEWIGEIYPRSGNTYYNEKFKGKATLTSDKSSSTSYMELRSLTSEDSAVYFCASESYYGDYAWYFDVWGTGTTVTVSS VL: DVLMTQTPLSLPVSLGDQASISCRSSQSVVHSNGITYLEWYLQKPGQSPKLLIYKVSNRFSGVPDRFSGSGSGTYFTLKISRVEAEDLGVYYCFQGSHVPPTFGGGTKLEIK
8.76 | 0.00329 | 376000 | 42.8 | 0.00355 | 83000 | – | – | – | – | – | – | ACI-8032-6301C8-Ab2 (antibody, V domains shown, mouse hybridoma mAb; VH/VL only; also called 6301C8G12) VH: QVQLQQSGAELARPGTSVKLSCKASGYTFTTYGISWVKQRTGQGLEWIGEIYPRSGNTYYNEKFKGKATLTADKPSSTAYMELRSLTSEDSAVYFCASESYYGDYAWYFDVWGTGTTVTVSS VL: DVLMTQIPLSLPVSLGDQASISCRSSQSIVHSNGNTYLEWHLQKPGQSPKLLIYEVSNRFSGVPDRFSGSGSGTDFTLNISRVEAEDLGVYYCFQGSHVPPTFGGGTKLEIK
16.7 | 0.0382 | 2.28e+06 | 41.5 | 0.000325 | 7830 | – | – | – | – | – | – | ACI-8032-6314A3-Ab3 (antibody, V domains shown, mouse hybridoma mAb; VH/VL only; also called 6314A3E4) VH: QVQLQQSGAELARPGASVKLSCKASGYTFTSYGVSWVKQRTGQGLEWIGEIYPRSGNTYYNEKFKGKATLTADKSSSTAYMELRSLTSEDSAVYFCASESYYGDYDWYFDVWGTGTTVTVSS VL: DVLMTQIPLSLPVSPGDQVFISCRSSQSIVHSNGNTYLEWYLQKPGQSPKPLIYKVSNRFSGVPDRFSGSGSGTDFTLKISRVEAEDLGVYYCFQGSHVPPTFGGGTKLEIK

Second part, the binder before the results:

Binder | Kd [1] [nM] | koff [1] [s⁻¹] | kon [1] [M⁻¹ s⁻¹] | Kd (alpha-synuclein fibrils [2]) [nM] | koff (alpha-synuclein fibrils [2]) [s⁻¹] | kon (alpha-synuclein fibrils [2]) [M⁻¹ s⁻¹] | koff [3] [s⁻¹] | kon [3] [M⁻¹ s⁻¹] | koff (alpha-synuclein fibrils [4]) [s⁻¹] | kon (alpha-synuclein fibrils [4]) [M⁻¹ s⁻¹] | Kd [5] [nM] | Kd (alpha-synuclein fibrils [6]) [nM]
ACI-8030-6106F5-Ab1 (antibody, V domains shown, mouse hybridoma mAb; VH/VL only; also called 6106F5B10) VH: QVQLQQSGPELVKPGASVKISCKASGYSFTTYYIHWMKQRPGQGPEWIGWIYPGRGYTKYNEKFKDKAAQTADTSSNTAYMQLSSLRSEDSAVYYCARDWETGFPYWGQGTLVTVSA VL: DIVLTQSPASLAVSLGQRATISCKASQSVDYGGDSWLNWYQQKPGQPPKLLIYAASNLDSGIPARFGGSGSGTDFTLNIHPVEEEDAATYYCQQSGEDPFTFGGGTNLEIK | 1.95 | 0.00023 | 118000 | 16.7 | 0.000232 | 13900 | – | – | – | – | – | –
ACI-7079-3112H1-Ab1 (antibody, V domains shown, mouse hybridoma mAb; VH/VL only; also called 3112H1F3) VH: EVQLQQSGPELVKPGASVKISCKASGYTFSDYFMNWVKQSHGKSLEWIGDINPNNGGSSYIQKFKGKATLTVDKSSTTAYMELRSLTSEDSAVYYCARGSNYAMDSWGQGTSVTVSS VL: DIVMSQSPSSLAVSAGEKVTMSCKSSQSLLNSRTRKNYLAWYQQKPGQSPKLLIYWASTRESGVPDRFTGSGSGTDFTLTISSVQAEDLAVYYCKQSYDLWTFGGGTKLEIK | 10.5 | 0.00225 | 214000 | 19.3 | 0.000216 | 11200 | – | – | – | – | – | –
ACI-3108C10_3112H1 (bispecific antibody, V domains shown, biparatopic; Arm A ACI-7079-3108C10-Ab2, Arm B ACI-7079-3112H1-Ab1; engineered constant domains not specified) VH 1: ELQLVESGGGLVRPGGSLKLSCATSGFTFRNYAMSWVRQTPAKRLEWVATISDGGTYTFYSDNVKGRFTISRDNVKNTLYLQMSHLKSEDTAMYYCSRAGSGHWGQGTTLTVSS VL 1: not shown VH 2: EVQLQQSGPELVKPGASVKISCKASGYTFSDYFMNWVKQSHGKSLEWIGDINPNNGGSSYIQKFKGKATLTVDKSSTTAYMELRSLTSEDSAVYYCARGSNYAMDSWGQGTSVTVSS VL 2: DIVMSQSPSSLAVSAGEKVTMSCKSSQSLLNSRTRKNYLAWYQQKPGQSPKLLIYWASTRESGVPDRFTGSGSGTDFTLTISSVQAEDLAVYYCKQSYDLWTFGGGTKLEIK | – | – | – | – | – | – | 0.023 | 2280 | 0.000315 | 13500 | 10100 | 23.4
ACI-8031-6207G10-Ab1 (antibody, V domains shown, mouse hybridoma mAb; VH/VL only; also called 6207G10E6) VH: QVQLQQSGAELVKPGASVKISCKASGYAFSSYWMNWVKQRPGKGLEWIGQIYPGDGDTNYNGKFKGKATLTADRSSSTAYMQLSSLTSEDSAVYFCAITHYDYWGQGTTLTVSS VL: DILLTQSPAILSVSPGDRVSFSCRASQSIGTRIHWYQQRTNGSPRLLIKYASESISGTPSRFSGSGSGTDFTLSINSVESEDIADYYCQQSNSWPLTFGAGTKLELK | 3.67 | 0.000314 | 85300 | 13.3 | 0.00015 | 11300 | – | – | – | – | – | –
ACI-8032-6304F3-Ab1 (antibody, V domains shown, mouse hybridoma mAb; VH/VL only; also called 6304F3D12) VH: QVQLQQSGAELARPGASVKLSCKASGYTFTSYGVSWVKQRTGQGLEWIGEIYPRSGNTYYNEKFKGKATLTADKSSSTAYMELRSLTSEDSAVYFCASESYYGDYDWYFDVWGTGTTVTVSS VL: DVLMTQIPLSLPVSPGDQVSISCRSSQSIVHSNGNTYLEWYLQKPGQSPKPLIYKVSNRFSGVPDRFSGSGSGTDFTLKISRVEAEDLGVYYCFQGSHVPPTFGGGTKLEIK | 4.75 | 0.016 | 3.37e+06 | 40.6 | 0.000527 | 13000 | – | – | – | – | – | –
ACI-8032-6301A10-Ab2 (antibody, V domains shown, mouse hybridoma mAb; VH/VL only; also called 6301A10E12) VH: QVQLQQSGAELARPGASVKLSCKASGYTFTSYGISWVKQRTGQGLEWIGEIYPRSGNTYYNEKFKGKATLTADKSSSTAYMELRSLTSEDSAVYFCASESYYGDYDWYFDVWGTGTTVTVSS VL: DVLMTQTPLSLPVSLGDQASISCRSSHSIEHSNGNTYLEWCLQKPGQPPKFLIYKVSNRFSGVPDRFSGSGSGTDFTLRISRVEAEDLGVYYCFQGSHVPPTFGGGTKLEIK | 11.5 | 0.00517 | 450000 | 2.69 | 0.000193 | 71800 | – | – | – | – | – | –
